Here are results for 2 molecules from publication PMC3335088 (PLoS ONE, 2012).

Holding throughout (conditions): partners not purified
The target of assay [1] is T1, MCM4 with 6-His tag in combination with a StrepII tag (UniProt P33991 1-863).
T1 construct: MCM4; The methods describe one MCM4 baculovirus with both tags; also called Strep-MCM4; Strep-tagged MCM4; source: High Five insect cells, baculovirus, in lysate
T1 sequence (looked up): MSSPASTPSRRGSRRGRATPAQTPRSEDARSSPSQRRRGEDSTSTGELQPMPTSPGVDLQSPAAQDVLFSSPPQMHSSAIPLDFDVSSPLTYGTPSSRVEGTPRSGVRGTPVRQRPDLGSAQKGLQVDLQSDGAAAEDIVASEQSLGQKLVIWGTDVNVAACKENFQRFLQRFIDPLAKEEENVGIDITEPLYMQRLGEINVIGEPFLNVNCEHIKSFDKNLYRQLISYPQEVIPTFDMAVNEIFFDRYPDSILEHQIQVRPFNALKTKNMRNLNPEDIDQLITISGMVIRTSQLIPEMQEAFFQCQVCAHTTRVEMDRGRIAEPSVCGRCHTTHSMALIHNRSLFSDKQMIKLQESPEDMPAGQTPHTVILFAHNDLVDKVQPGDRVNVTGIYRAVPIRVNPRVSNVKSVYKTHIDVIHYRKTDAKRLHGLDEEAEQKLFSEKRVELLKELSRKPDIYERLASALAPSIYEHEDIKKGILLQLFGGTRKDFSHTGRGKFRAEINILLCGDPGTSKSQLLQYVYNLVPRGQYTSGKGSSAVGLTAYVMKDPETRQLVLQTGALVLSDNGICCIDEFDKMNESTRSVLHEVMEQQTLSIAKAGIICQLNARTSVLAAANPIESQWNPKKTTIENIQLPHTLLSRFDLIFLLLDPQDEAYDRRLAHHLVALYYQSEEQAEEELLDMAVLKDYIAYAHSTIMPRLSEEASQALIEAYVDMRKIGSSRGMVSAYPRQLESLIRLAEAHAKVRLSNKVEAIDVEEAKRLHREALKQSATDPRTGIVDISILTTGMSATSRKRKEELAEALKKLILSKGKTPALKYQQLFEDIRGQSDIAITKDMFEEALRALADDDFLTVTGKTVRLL
Put plainly: pull-down; co-expression in High Five insect cells; lysis in 50-100 mM Tris-HCl pH 8.0, 150 mM NaCl, 5% glycerol, 0.5% Triton X-100; tagged protein recovered on Ni-NTA, anti-FLAG M2, anti-HA or StrepT-actin resin, 1 hr at 4°C; washes with 300 mM NaCl; Coomassie staining and Western blot. In general terms: In western blotting, separated proteins are transferred to a membrane and probed.

Assay [2] has as its target T2, MCM5 with 6-His tag in combination with a triple FLAG tag (UniProt P33992 1-734).
T2 construct: MCM5; also called FLAG-MCM5; 6-His-tagged MCM5; source: High Five insect cells, baculovirus, in lysate; not shown: His6, N-terminal, kept; triple FLAG, N-terminal, kept
T2 sequence (looked up): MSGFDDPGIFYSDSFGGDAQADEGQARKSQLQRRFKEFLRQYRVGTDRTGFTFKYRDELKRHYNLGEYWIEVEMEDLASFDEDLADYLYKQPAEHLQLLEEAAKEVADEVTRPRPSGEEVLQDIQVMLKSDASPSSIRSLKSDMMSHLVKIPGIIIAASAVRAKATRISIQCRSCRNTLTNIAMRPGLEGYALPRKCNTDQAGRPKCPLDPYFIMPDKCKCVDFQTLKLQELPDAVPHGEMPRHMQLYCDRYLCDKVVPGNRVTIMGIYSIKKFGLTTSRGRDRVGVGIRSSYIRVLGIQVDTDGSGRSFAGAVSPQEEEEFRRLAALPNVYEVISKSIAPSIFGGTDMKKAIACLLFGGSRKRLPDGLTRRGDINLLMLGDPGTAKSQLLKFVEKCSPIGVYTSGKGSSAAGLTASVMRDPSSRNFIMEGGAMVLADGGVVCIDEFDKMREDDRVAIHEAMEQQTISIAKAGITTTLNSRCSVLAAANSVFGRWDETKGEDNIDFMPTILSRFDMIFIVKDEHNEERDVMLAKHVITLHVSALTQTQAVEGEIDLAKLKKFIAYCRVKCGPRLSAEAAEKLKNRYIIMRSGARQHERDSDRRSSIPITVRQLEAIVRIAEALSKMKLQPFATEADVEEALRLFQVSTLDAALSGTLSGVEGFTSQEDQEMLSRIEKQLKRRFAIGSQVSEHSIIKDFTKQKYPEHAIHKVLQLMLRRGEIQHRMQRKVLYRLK
Described as above.

In assay [3] the target is T3, MCM6 with 6-His tag in combination with a HA tag (human, UniProt Q14566 1-821).
T3 construct: MCM6; also called HA-MCM6; 6-His-tagged MCM6; source: High Five insect cells, baculovirus, in lysate
T3 sequence (looked up): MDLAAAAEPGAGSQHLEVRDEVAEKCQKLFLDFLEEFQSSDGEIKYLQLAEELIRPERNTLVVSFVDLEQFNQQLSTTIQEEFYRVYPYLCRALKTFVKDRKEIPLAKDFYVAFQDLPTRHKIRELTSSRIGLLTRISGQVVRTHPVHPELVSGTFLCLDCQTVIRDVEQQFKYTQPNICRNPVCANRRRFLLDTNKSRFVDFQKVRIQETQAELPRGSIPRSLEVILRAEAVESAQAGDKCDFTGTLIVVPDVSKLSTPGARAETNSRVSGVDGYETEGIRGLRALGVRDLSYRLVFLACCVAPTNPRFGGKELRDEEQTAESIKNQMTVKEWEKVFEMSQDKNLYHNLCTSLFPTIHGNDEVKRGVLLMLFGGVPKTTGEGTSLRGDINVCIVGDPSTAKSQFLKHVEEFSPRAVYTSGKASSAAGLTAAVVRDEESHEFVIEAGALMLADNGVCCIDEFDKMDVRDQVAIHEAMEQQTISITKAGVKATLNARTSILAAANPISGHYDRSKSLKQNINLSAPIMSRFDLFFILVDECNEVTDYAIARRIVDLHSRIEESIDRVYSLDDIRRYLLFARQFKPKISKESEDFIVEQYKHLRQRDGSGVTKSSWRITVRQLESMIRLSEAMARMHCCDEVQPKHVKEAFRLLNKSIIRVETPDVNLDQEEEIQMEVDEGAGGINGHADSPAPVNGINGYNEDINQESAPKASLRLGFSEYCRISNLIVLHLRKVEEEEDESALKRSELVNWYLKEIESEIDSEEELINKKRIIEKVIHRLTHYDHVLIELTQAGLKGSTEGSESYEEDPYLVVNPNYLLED
The assay is described as above.

Assay [4] addresses T4, untagged MCM3 (UniProt P25205 1-808).
T4 construct: MCM3, untagged; construct not described in the methods; also called MCM3 (no tag); source: High Five insect cells, baculovirus, in lysate; co-isolated with His-MCM-BP for the gradient
T4 sequence (looked up): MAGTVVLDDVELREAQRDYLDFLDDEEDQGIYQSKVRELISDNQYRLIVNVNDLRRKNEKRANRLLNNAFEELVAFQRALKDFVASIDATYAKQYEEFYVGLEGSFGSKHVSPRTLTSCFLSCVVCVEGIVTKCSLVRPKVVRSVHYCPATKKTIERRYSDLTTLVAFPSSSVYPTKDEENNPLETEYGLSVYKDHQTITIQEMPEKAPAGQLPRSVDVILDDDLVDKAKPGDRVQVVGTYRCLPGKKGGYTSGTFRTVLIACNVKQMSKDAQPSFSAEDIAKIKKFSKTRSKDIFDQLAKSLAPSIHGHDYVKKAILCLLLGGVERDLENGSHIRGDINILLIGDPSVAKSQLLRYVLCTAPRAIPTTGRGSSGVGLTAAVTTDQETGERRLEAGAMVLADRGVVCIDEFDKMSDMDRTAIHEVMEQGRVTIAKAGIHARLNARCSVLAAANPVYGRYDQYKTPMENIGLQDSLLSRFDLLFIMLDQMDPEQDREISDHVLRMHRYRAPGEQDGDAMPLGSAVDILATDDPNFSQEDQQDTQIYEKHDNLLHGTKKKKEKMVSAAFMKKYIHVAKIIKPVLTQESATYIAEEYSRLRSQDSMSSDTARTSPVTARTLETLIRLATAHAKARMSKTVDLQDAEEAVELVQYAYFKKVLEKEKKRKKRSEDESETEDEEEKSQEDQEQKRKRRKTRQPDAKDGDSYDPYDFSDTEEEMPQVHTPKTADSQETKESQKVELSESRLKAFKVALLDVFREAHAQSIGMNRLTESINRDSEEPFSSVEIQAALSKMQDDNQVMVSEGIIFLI
Briefly: pull-down; co-expression in High Five insect cells; NaCl of the clarified lysate raised from 0.15 M up to 0.75 M, or deoxycholate added to 0.1 or 0.5% (with 150 mM NaCl), before incubation with Strep-T actin, anti-FLAG or nickel resin; Coomassie staining.

B1: MCM-BP with no tags (natural protein, human, UniProt Q9BTE3 1-642, looked up)
chain: MPCGEDWLSHPLGIVQGFFAQNGVNPDWEKKVIEYFKEKLKENNAPKWVPSLNEVPLHYLKPNSFVKFRCMIQDMFDPEFYMGVYETVNQNTKAHVLHFGKYRDVAECGPQQELDLNSPRNTTLERQTFYCVPVPGESTWVKEAYVNANQARVSPSTSYTPSRHKRSYEDDDDMDLQPNKQKDQHAGARQAGSVGGLQWCGEPKRLETEASTGQQLNSLNLSSPFDLNFPLPGEKGPACLVKVYEDWDCFKVNDILELYGILSVDPVLSILNNDERDASALLDPMECTDTAEEQRVHSPPASLVPRIHVILAQKLQHINPLLPACLNKEESKTCKFVSSFMSELSPVRAELLGFLTHALLGDSLAAEYLILHLISTVYTRRDVLPLGKFTVNLSGCPRNSTFTEHLYRIIQHLVPASFRLQMTIENMNHLKFIPHKDYTANRLVSGLLQLPSNTSLVIDETLLEQGQLDTPGVHNVTALSNLITWQKVDYDFSYHQMEFPCNINVFITSEGRSLLPADCQIHLQPQLIPPNMEEYMNSLLSAVLPSVLNKFRIYLTLLRFLEYSISDEITKAVEDDFVEMRKNDPQSITADDLHQLLVVARCLSLSAGQTTLSRERWLRAKQLESLRRTRLQQQKCVNGNEL
notes: MCM-BP, human; made from pfastBacHT.MCM-BP by excising the 6-His tag; also called untagged MCM-BP; nontagged MCM-BP; source: High Five insect cells, baculovirus, co-expressed, in lysate
Consider B1, for which the binding result in assay [1], in assay [2] and in assay [3] was “binds” throughout.

B2: His-tagged MCM-BP (natural protein, human, UniProt Q9BTE3 1-642, looked up)
chain: MPCGEDWLSHPLGIVQGFFAQNGVNPDWEKKVIEYFKEKLKENNAPKWVPSLNEVPLHYLKPNSFVKFRCMIQDMFDPEFYMGVYETVNQNTKAHVLHFGKYRDVAECGPQQELDLNSPRNTTLERQTFYCVPVPGESTWVKEAYVNANQARVSPSTSYTPSRHKRSYEDDDDMDLQPNKQKDQHAGARQAGSVGGLQWCGEPKRLETEASTGQQLNSLNLSSPFDLNFPLPGEKGPACLVKVYEDWDCFKVNDILELYGILSVDPVLSILNNDERDASALLDPMECTDTAEEQRVHSPPASLVPRIHVILAQKLQHINPLLPACLNKEESKTCKFVSSFMSELSPVRAELLGFLTHALLGDSLAAEYLILHLISTVYTRRDVLPLGKFTVNLSGCPRNSTFTEHLYRIIQHLVPASFRLQMTIENMNHLKFIPHKDYTANRLVSGLLQLPSNTSLVIDETLLEQGQLDTPGVHNVTALSNLITWQKVDYDFSYHQMEFPCNINVFITSEGRSLLPADCQIHLQPQLIPPNMEEYMNSLLSAVLPSVLNKFRIYLTLLRFLEYSISDEITKAVEDDFVEMRKNDPQSITADDLHQLLVVARCLSLSAGQTTLSRERWLRAKQLESLRRTRLQQQKCVNGNEL
notes: MCM-BP, human; pfastBacHT.MCM-BP; also called His-MCM-BP; His-BP; source: High Five insect cells, baculovirus; not shown: His6, N-terminal, kept
Consider B2, for which the binding result in assay [4] is recorded as “binds”.
